Measurements reported in US20170095421A1 (published 2017).

How the values were obtained:
GPIIbIIIa = assay: SPR (Langmuir binding analysis)
Peptide 2 = assay: SPR (Langmuir binding analysis); GPIIbIIIa mimotope
Peptide 1 = assay: as above

Kd (GPIIbIIIa): 0.0103 µM | Kd (Peptide 2): 0.334 µM | Kd (Peptide 1): 12.5 µM
B1: Fibrinogen (ligand)
chain 1: ADSGEGDFLAEGGGVRGPRVVERHQSACKDSDWPFCSDEDWNYKCPSGCRMKGLIDEVNQDFTNRINKLKNSLFEYQKNNKDSHSLTTNIMEILRGDFSSANNRDNTYNRVSEDLRSRIEVLKRKVIEKVQHIQLLQKNVRAQLVDMKRLEVDIDIKIRSCRGSCSRALAREVDLKDYEDQQKQLEQVIAKDLLPSRDRQHLPLIKMKPVPDLVPGNFKSQLQKVPPEWKALTDMPQMRMELERPGGNEITRGGSTSYGTGSETESPRNPSSAGSWNSGSSGPGSTGNRNPGSSGTGGTATWKPGSSGPGSTGSWNSGSSGTGSTGNQNPGSPRPGSTGTWNPGSSERGSAGHWTSESSVSGSTGQWHSESGSFRPDSPGSGNARPNNPDWGTFEEVSGNVSPGTRREYHTEKLVTSKGDKELRTGKEKVTSGSTTTTRRSCSKTVTKTVIGPDGHKEVTKEVVTSEDGSDCPEAMDLGTLSGIGTLDGFRHRHPDEAAFFDTASTGKTFPGFFSPMLGEFVSETESRGSESGIFTNTKESSSHHPGIAEFPSRGKSSSYSKQFTSSTSYNRGDSTFESKSYKMADEAGSEADHEGTHSTKRGHAKSRPV
chain 2: QGVNDNEEGFFSARGHRPLDKKREEAPSLRPAPPPISGGGYRARPAKAAATQKKVERKAPDAGGCLHADPDLGVLCPTGCQLQEALLQQERPIRNSVDELNNNVEAVSQTSSSSFQYMYLLKDLWQKRQKQVKDNENVVNEYSSELEKHQLYIDETVNSNIPTNLRVLRSILENLRSKIQKLESDVSAQMEYCRTPCTVSCNIPVVSGKECEEIIRKGGETSEMYLIQPDSSVKPYRVYCDMNTENGGWTVIQNRQDGSVDFGRKWDPYKQGFGNVATNTDGKNYCGLPGEYWLGNDKISQLTRMGPTELLIEMEDWKGDKVKAHYGGFTVQNEANKYQISVNKYRGTAGNALMDGASQLMGENRTMTIHNGMFFSTYDRDNDGWLTSDPRKQCSKEDGGGWWYNRCHAANPNGRYYWGGQYTWDMAKHGTDDGVVWMNWKGSWYSMRKMSMKIRPFFPQQ
chain 3: YVATRDNCCILDERFGSYCPTTCGIADFLSTYQTKVDKDLQSLEDILHQVENKTSEVKQLIKAIQLTYNPDESSKPNMIDAATLKSRKMLEEIMKYEASILTHDSSIRYLQEIYNSNNQKIVNLKEKVAQLEAQCQEPCKDTVQIHDITGKDCQDIANKGAKQSGLYFIKPLKANQQFLVYCEIDGSGNGWTVFQKRLDGSVDFKKNWIQYKEGFGHLSPTGTTEFWLGNEKIHLISTQSAIPYALRVELEDWNGRTSTADYAMFKVGPEADKYRLTYAYFAGGDAGDAFDGFDFGDDPSDKFFTSHNGMQFSTWDNDNDKFEGNCAEQDGSGWWMNKCHAGHLNGVYYQGGTYSKASTPNGYDNGIIWATWKTRWYSMKKTTMKIIPFNRLTIGEGQQHHLGGAKQAGDV
